Test results published in patent US20060029943A1.

Biological target: HLA class I on primary cervical cancer cells CA1 and CA2 (haplotype HLA A1) (human)
Assay: cell-based or functional assay

In the case of “Mab specific for monomorphic HLA class I W6/32 (antibody)”, the percent killing of CA1 target, AAV/E6/Neo (purified virus) plus anti-class I antibodies (36.1+/-1.4% without antibody) is reported as 0.4%.
